From US10064928B2, “Peptides and combination of peptides for use in immunotherapy against CLL and other cancers” (IMMATICS BIOTECHNOLOGIES GMBH, priority 2015, dated 2018)

Legend:
[1] = system: CD8+ T cells; experiment: In vitro T-cell priming assay with aAPCs loaded with peptide/MHC and anti-CD28, multimer readout; assay type: cell-based, human; settings: in vitro immunogenicity, percentage of positive wells; for Wells positive [%]: HLA-A*02 restricted peptides; for wells: healthy HLA-A*02 donors
Source text: In order to obtain information regarding the immunogenicity of the TUMAPs of the present invention, the inventors performed investigations using an in vitro T-cell priming assay based on repeated stimulations of CD8+ T cells with artificial antigen presenting cells (aAPCs) loaded with peptide/MHC complexes and anti-CD28 antibody.
In order to perform in vitro stimulations by artificial antigen presenting cells loaded with peptide-MHC complex (pMHC) and anti-CD28 antibody, the inventors first isolated CD8+ T cells from fresh HLA-A*02 leukapheresis products via positive selection using CD8 microbeads (Miltenyi Biotec, Bergisch-Gladbach, Germany) of healthy donors obtained from the University clinics Mannheim, Germany, after informed consent.
PBMCs and isolated CD8+ lymphocytes were incubated in T-cell medium (TCM) until use consisting of RPMI-Glutamax (Invitrogen, Karlsruhe, Germany) supplemented with 10% heat inactivated human AB serum (PAN-Biotech, Aidenbach, Germany), 100 U/ml Penicillin/100 μg/ml Streptomycin (Cambrex, Cologne, Germany), 1 mM sodium pyruvate (CC Pro, Oberdorla, Germany), 20 μg/ml Gentamycin (Cambrex). 2.5 ng/ml IL-7 (PromoCell, Heidelberg, Germany) and 10 U/ml IL-2 (Novartis Pharma, Nürnberg, Germany) were also added to the TCM at this step.
Generation of pMHC/anti-CD28 coated beads, T-cell stimulations and readout was performed in a highly defined in vitro system using four different pMHC molecules per stimulation condition and 8 different pMHC molecules per readout condition.
The purified co-stimulatory mouse IgG2a anti human CD28 Ab 9.3 (Jung et al., 1987) was chemically biotinylated using Sulfo-N-hydroxysuccinimidobiotin as recommended by the manufacturer (Perbio, Bonn, Germany). Beads used were 5.6 μm diameter streptavidin coated polystyrene particles (Bangs Laboratories, Illinois, USA).
800.000 beads/200 μl were coated in 96-well plates in the presence of 4×12.5 ng different biotin-pMHC, washed and 600 ng biotin anti-CD28 were added subsequently in a volume of 200 μl. Stimulations were initiated in 96-well plates by co-incubating […] CD8+ T cells with 2×10^5 washed coated beads in 200 μl TCM supplemented with 5 ng/ml IL-12 (PromoCell) for 3 days at 37° C. Half of the medium was then exchanged by fresh TCM supplemented with 80 U/ml IL-2 and incubating was continued for 4 days at 37° C. This stimulation cycle was performed for a total of three times. For the pMHC multimer readout using 8 different pMHC molecules per condition, a two-dimensional combinatorial coding approach was used as previously described (Andersen et al., 2012) with minor modifications encompassing coupling to 5 different fluorochromes. Finally, multimeric analyses were performed by staining the cells with Live/dead near IR dye (Invitrogen, Karlsruhe, Germany), CD8-FITC antibody clone SK1 (BD, Heidelberg, Germany) and fluorescent pMHC multimers. For analysis, a BD LSRII SORP cytometer equipped with appropriate lasers and filters was used. Peptide specific cells were calculated as percentage of total CD8+ cells. Evaluation of multimeric analysis was done using the FlowJo software (Tree Star, Oreg., USA). In vitro priming of specific multimer+CD8+ lymphocytes was detected by comparing to negative control stimulations.

[2] = biological target: HLA-A*02:01 (Homo sapiens, UniProt P04439, D140Y/D185E/D98H/E176V/E277Q/G131W/G231S/I119V/I121R/I166T/I218V/L300P/L318F/N151K/N90K/P208A/P217A/Q86G/Q94H/R138H/R169H/T345S); experiment: MHC binding assay (UV-ligand exchange, beta2m ELISA); settings: binding of HLA-class I restricted peptides to HLA-A*02:01, β2m ELISA
How it was run: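 UV-cleavable peptide in HLA monomers exchanged for test peptide by UV irradiation; exchange yield measured by streptavidin-capture ELISA with HRP anti-β2m (TMB, 450 nm) on 100-fold diluted complexes. Quantified against refolded HLA-A*02:01/MLA-001 standards (15-500 ng/ml).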

| Peptide Exchange (MHC class I binding score, peptide exchange yield) [2] | Substance | Wells positive [%] [1] | wells [1] |
| --- | --- | --- | --- |
| “+++” (≥50 = +++) | 1 (AIPPSFASIFL; listed as Homo sapiens) [compound 1] | “+++” (50%-69% = +++) |  |
| “+++” (≥50 = +++) | 2 (ALHRPDVYL; listed as Homo sapiens) [compound 2] | “+” (<20% = +) |  |
| “+++” (≥50 = +++) | 5 (ALIFKIASA; listed as Homo sapiens) [compound 5] | “+++” (50%-69% = +++) |  |
| “+++” (≥50 = +++) | 17 (ALTKTNLQL; listed as Homo sapiens) [compound 17] | “+” (<20% = +) |  |
| “+++” (≥50 = +++) | 26 (AVLLVLPLV; listed as Homo sapiens) [compound 26] | “+” (<20% = +) |  |
| “++++” (≥75% = ++++) | 32 (FIDKFTPPV; listed as Homo sapiens) [compound 32] | “++++” (>=70% = ++++) |  |
| “++++” (≥75% = ++++) | 49 (FLTDLFAQL; listed as Homo sapiens) [compound 49] | “++” (20%-49% = ++) |  |
| “+++” (≥50 = +++) | 54 (FLYPFPLALF; listed as Homo sapiens) [compound 54] | “+” (<20% = +) |  |
| “+++” (≥50 = +++) | 56 (FVFEAPYTL; listed as Homo sapiens) [compound 56] | “++” (20%-49% = ++) |  |
| “+++” (≥50 = +++) | 345 (YLIEPDVELQRI; listed as Homo sapiens) [compound 345] |  |  |
| “+++” (≥50 = +++) | 346 (VLVQVSPSL; listed as Homo sapiens) [compound 346] |  |  |
| “+++” (≥50 = +++) | 347 (YLGPVSPSL; listed as Homo sapiens) [compound 347] |  |  |
| “+++” (≥50 = +++) | 348 (ALAKPPVVSV; listed as Homo sapiens) [compound 348] |  |  |
| “+++” (≥50 = +++) | 349 (ALATHILSL; listed as Homo sapiens) [compound 349] |  |  |
| “+++” (≥50 = +++) | 350 (ALEDRVWEL; listed as Homo sapiens) [compound 350] |  |  |
| “+++” (≥50 = +++) | 351 (ALSEKLARL; listed as Homo sapiens) [compound 351] |  |  |
| “+++” (≥50 = +++) | 352 (ALVFELHYV; listed as Homo sapiens) [compound 352] |  |  |
| “++” (≥20% = ++) | 353 (ATPMPTPSV; listed as Homo sapiens) [compound 353] |  |  |
| “+++” (≥50 = +++) | 354 (FIMDDPAGNSYL; listed as Homo sapiens) [compound 354] |  |  |
| “+++” (≥50 = +++) | 355 (FIWPMLIHI; listed as Homo sapiens) [compound 355] |  |  |
| “++” (≥20% = ++) | 356 (FLHDHQAEL; listed as Homo sapiens) [compound 356] |  |  |
| “+++” (≥50 = +++) | 357 (FLIQEIKTL; listed as Homo sapiens) [compound 357] |  |  |
| “+++” (≥50 = +++) | 358 (FLTDYLNDL; listed as Homo sapiens) [compound 358] |  |  |
| “+++” (≥50 = +++) | 359 (FMQDPMEVFV; listed as Homo sapiens) [compound 359] |  |  |
| “+++” (≥50 = +++) | 360 (HLIDTNKIQL; listed as Homo sapiens) [compound 360] |  |  |

| Peptide Exchange (MHC class I binding score, peptide exchange yield) [2] | Substance | Wells positive [%] [1] | wells [1] |
| --- | --- | --- | --- |
| “+++” (≥50 = +++) | 361 (ILQEFESKL; listed as Homo sapiens) [compound 361] |  |  |
| “+++” (≥50 = +++) | 362 (ILTELGGFEV; listed as Homo sapiens) [compound 362] |  |  |
| “+++” (≥50 = +++) | 363 (ITTEVVNELYV; listed as Homo sapiens) [compound 363] |  |  |
| “+++” (≥50 = +++) | 364 (KMDWIFHTI; listed as Homo sapiens) [compound 364] |  |  |
| “+++” (≥50 = +++) | 365 (LISPLLLPV; listed as Homo sapiens) [compound 365] |  |  |
| “+++” (≥50 = +++) | 367 (NLWSLVAKV; listed as Homo sapiens) [compound 367] |  |  |
| “+++” (≥50 = +++) | 369 (RLLDLENSLLGL; listed as Homo sapiens) [compound 369] |  |  |
| “+++” (≥50 = +++) | 370 (SIFASPESV; listed as Homo sapiens) [compound 370] |  |  |
| “+++” (≥50 = +++) | 371 (SLADDSVLERL; listed as Homo sapiens) [compound 371] |  |  |
| “+++” (≥50 = +++) | 372 (SLFGPLPGPGPALV; listed as Homo sapiens) [compound 372] |  |  |
| “++” (≥20% = ++) | 373 (TLLADQGEIRV; listed as Homo sapiens) [compound 373] |  |  |
| “+++” (≥50 = +++) | 374 (VLSVITEEL; listed as Homo sapiens) [compound 374] |  |  |
| “+++” (≥50 = +++) | 375 (VLWFKPVEL; listed as Homo sapiens) [compound 375] |  |  |
| “+++” (≥50 = +++) | 376 (VLYNQRVEEI; listed as Homo sapiens) [compound 376] |  |  |
| “+++” (≥50 = +++) | 377 (VVDGTCVAV; listed as Homo sapiens) [compound 377] |  |  |
| “+++” (≥50 = +++) | 378 (YILGKFFAL; listed as Homo sapiens) [compound 378] |  |  |
| “+++” (≥50 = +++) | 379 (YLAELVTPIL; listed as Homo sapiens) [compound 379] |  |  |
| “+++” (≥50 = +++) | 381 (YLLEENKIKL; listed as Homo sapiens) [compound 381] |  |  |
| “++++” (≥75% = ++++) | 382 (YLLPLLQRL; listed as Homo sapiens) [compound 382] |  |  |
| “++++” (≥75% = ++++) | 383 (YLLREWVNL; listed as Homo sapiens) [compound 383] |  |  |
| “++++” (≥75% = ++++) | 384 (YMIGSEVGNYL; listed as Homo sapiens) [compound 384] |  |  |
| “+++” (≥50 = +++) | 385 (YTIPLAIKL; listed as Homo sapiens) [compound 385] |  |  |
|  | 427 (LLYDAVHIV; listed as Homo sapiens) [compound 427] |  | ++ (20%-49% = ++) |
|  | 521 (YLYGQTTTYL; listed as Homo sapiens) [compound 521] |  | ++ (20%-49% = ++) |
